From PMC9818667 come the findings set out here.

B1: VALSSLRP (peptide)
peptide: VALSSLRP
B2: … (peptide)
peptide: QFQPGFSSS
B3: … (peptide)
peptide: STGEAFVQFASQEIAEK
B4: … (peptide)
peptide: NPDDITNEEYGEFYK
B5: … (peptide)
peptide: TTPSYVAFTDTER

The assay has as its target T1, angiotensin-converting enzyme (ACE) from rabbit lung (rabbit) (UniProt P12822).
T1 sequence: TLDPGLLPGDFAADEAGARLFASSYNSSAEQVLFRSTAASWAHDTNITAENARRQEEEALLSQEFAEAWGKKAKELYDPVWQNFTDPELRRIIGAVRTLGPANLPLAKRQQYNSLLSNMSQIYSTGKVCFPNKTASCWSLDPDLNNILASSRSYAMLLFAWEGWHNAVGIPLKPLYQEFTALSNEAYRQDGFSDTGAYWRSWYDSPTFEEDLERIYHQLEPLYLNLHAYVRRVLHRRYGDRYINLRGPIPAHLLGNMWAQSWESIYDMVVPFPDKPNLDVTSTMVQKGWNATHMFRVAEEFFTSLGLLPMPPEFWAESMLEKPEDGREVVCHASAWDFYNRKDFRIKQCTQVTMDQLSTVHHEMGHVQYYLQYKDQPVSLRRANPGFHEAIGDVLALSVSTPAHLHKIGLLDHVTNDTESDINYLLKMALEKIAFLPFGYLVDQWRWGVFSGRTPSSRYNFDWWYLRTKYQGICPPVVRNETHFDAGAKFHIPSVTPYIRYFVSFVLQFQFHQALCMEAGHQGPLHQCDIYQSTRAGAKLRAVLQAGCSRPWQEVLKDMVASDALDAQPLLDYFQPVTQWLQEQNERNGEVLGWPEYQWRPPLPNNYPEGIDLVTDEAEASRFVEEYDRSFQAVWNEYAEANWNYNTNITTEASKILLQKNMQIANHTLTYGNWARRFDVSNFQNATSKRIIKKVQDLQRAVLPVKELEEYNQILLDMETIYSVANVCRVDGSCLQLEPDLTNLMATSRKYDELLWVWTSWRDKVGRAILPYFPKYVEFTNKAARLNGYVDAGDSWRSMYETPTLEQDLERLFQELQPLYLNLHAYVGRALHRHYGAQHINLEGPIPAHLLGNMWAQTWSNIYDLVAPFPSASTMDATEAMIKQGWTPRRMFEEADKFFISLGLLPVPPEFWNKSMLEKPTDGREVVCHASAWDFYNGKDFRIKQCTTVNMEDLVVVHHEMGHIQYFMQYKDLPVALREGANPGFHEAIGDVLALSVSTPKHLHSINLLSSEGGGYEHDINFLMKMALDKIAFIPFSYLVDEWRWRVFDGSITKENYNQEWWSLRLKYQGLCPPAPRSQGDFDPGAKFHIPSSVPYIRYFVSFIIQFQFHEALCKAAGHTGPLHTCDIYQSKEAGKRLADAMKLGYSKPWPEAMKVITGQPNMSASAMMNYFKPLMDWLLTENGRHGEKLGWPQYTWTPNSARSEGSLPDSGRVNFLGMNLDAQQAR
B1: the ACE inhibitory activity (substrate HHL, hippuric acid by HPLC), peptide at 1 mg/mL stood at 91.7% and the IC50 of ACE inhibitory activity (substrate HHL, hippuric acid by HPLC) was 39 µg/mL.
As for B2, the ACE inhibitory activity (substrate HHL, hippuric acid by HPLC), peptide at 1 mg/mL was 40.9%.
On the same count and under the same terms, to B3 belongs 1.57%; to B4, 2.81%.
Same read-out and setting: the figure for B5 is 26.7%.
